For the data set, the target named is SuperFi-Cas9 (7-D Cas9) 7-D: seven RuvC loop residues shown in FIG. 4b each mutated to Asp (individual residues not listed in text) (Streptococcus pyogenes) (UniProt Q99ZW2). Nature of the data set: cleavage_in_vitro. Particulars: PAM TGG, 10 mM Mg2+, 37 C.

Take “GACGCAUAAAGAUGAGACGC / AGCTGACGTTTGTACTCCAGCGTCTCATCTTTATGCCAGAGCAGAGATTTCTGCT / AGCAGAAATCTCTGCTCTGGCATAAAGATGAGACGCTGGAGTACAAACGTCAGCT [sgRNA ; 18-20 MM DNA]”: the activity (kobs +/- 0.0002, amplitude 8.4 nM, 500-fold slower than on-target) was determined as 0.004 s⁻¹.
Under “kobs +/- 0.1, amplitude 7.7 nM, 6.3-fold preference over 18-20 MM in competition”, “GACGCAUAAAGAUGAGACGC / AGCTGACGTTTGTACTCCAGCGTCTCATCTTTATGCGTCAGCAGAGATTTCTGCT / AGCAGAAATCTCTGCTGACGCATAAAGATGAGACGCTGGAGTACAAACGTCAGCT [sgRNA ; On-target DNA]” had an activity of 2 s⁻¹.

For the origin of these results see US20250043313.
